Measured values: patent US10253076B2, “Peptides and combination of peptides for use in immunotherapy against ovarian cancer and other cancers” (immatics biotechnologies GmbH, priority 2015, dated 2019)

Target: HLA-A*02:01 (Homo sapiens, UniProt P04439, D140Y/D185E/D98H/E176V/E277Q/G131W/G231S/I119V/I121R/I166T/I218V/L300P/L318F/N151K/N90K/P208A/P217A/Q86G/Q94H/R138H/R169H/T345S)
Assay: MHC binding assay (UV-ligand exchange, beta2m ELISA, peptide exchange yield)
Conditions: binding of HLA-class I restricted peptides to HLA-A*02:01, ranged by peptide exchange yield (UV-ligand exchange, β2m ELISA)
Summary of the method: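 Readout is a β2m ELISA: stabilized complexes captured on streptavidin, detected with HRP-conjugated anti-β2m and TMB at 450 nm, reporting peptide exchange yield. Complexes come from UV-light cleavage of a conditional ligand in HLA-A*02:01 and replacement by the candidate peptide, samples diluted 100-fold.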

| Substance | Peptide exchange |
| --- | --- |
| 344 (YLQDQHLLLTV; listed as Homo sapiens) [compound 344] | ″+++″ (≥50% = +++) |
| 345 (VIWKALIHL; listed as Homo sapiens) [compound 345] | ″+++″ (≥50% = +++) |
| 346 (LLDSKVPSV; listed as Homo sapiens) [compound 346] | ″+++″ (≥50% = +++) |
| 347 (SLFKHDPAAWEA; listed as Homo sapiens) [compound 347] | ″++++″ (≥75% = ++++) |
| 348 (ILLDVKTRL; listed as Homo sapiens) [compound 348] | ″++++″ (≥75% = ++++) |
| 349 (SLTEYLQNV; listed as Homo sapiens) [compound 349] | ″++++″ (≥75% = ++++) |
| 350 (ALLDVTHSELTV; listed as Homo sapiens) [compound 350] | ″+++″ (≥50% = +++) |
| 351 (SLIPNLRNV; listed as Homo sapiens) [compound 351] | ″+++″ (≥50% = +++) |
| 352 (SLLELLHIYV; listed as Homo sapiens) [compound 352] | ″+++″ (≥50% = +++) |
| 353 (YLFEMDSSL; listed as Homo sapiens) [compound 353] | ″++″ (≥20% = ++) |
| 354 (LILEGVDTV; listed as Homo sapiens) [compound 354] | ″++″ (≥20% = ++) |
| 355 (SIQQSIERLLV; listed as Homo sapiens) [compound 355] | ″++″ (≥20% = ++) |
| 356 (KLLGKLPEL; listed as Homo sapiens) [compound 356] | ″+++″ (≥50% = +++) |
| 357 (SMHDLVLQV; listed as Homo sapiens) [compound 357] | ″+++″ (≥50% = +++) |
| 358 (ALDEYTSEL; listed as Homo sapiens) [compound 358] | ″++++″ (≥75% = ++++) |
| 359 (YLLPESVDL; listed as Homo sapiens) [compound 359] | ″+++″ (≥50% = +++) |
| 361 (ALYELEGTTV; listed as Homo sapiens) [compound 361] | ″+++″ (≥50% = +++) |
| 362 (TLYGLSVLL; listed as Homo sapiens) [compound 362] | ″+++″ (≥50% = +++) |
| 363 (KVLDVSDLESV; listed as Homo sapiens) [compound 363] | ″++″ (≥20% = ++) |
| 364 (LLQNEQFEL; listed as Homo sapiens) [compound 364] | ″+++″ (≥50% = +++) |
| 365 (YVIDQGETDVYV; listed as Homo sapiens) [compound 365] | ″+++″ (≥50% = +++) |
| 366 (RLLDMGETDLML; listed as Homo sapiens) [compound 366] | ″+++″ (≥50% = +++) |
| 367 (SLQNHNHQL; listed as Homo sapiens) [compound 367] | ″+++″ (≥50% = +++) |
| 369 (GLFPEHLIDV; listed as Homo sapiens) [compound 369] | ″+++″ (≥50% = +++) |
| 370 (SLLQDLVSV; listed as Homo sapiens) [compound 370] | ″+++″ (≥50% = +++) |
| 371 (FLQAHLHTA; listed as Homo sapiens) [compound 371] | ″++++″ (≥75% = ++++) |

| Substance | Peptide exchange |
| --- | --- |
| 372 (TMLLNIPLV; listed as Homo sapiens) [compound 372] | ″++″ (≥20% = ++) |
| 373 (SLLEDKGLAEV; listed as Homo sapiens) [compound 373] | ″++″ (≥20% = ++) |
| 374 (FLLQQHLISA; listed as Homo sapiens) [compound 374] | ″++″ (≥20% = ++) |
| 375 (SLTETIEGV; listed as Homo sapiens) [compound 375] | ″++″ (≥20% = ++) |
| 376 (AMFESSQNVLL; listed as Homo sapiens) [compound 376] | ″++″ (≥20% = ++) |
| 377 (FLLDSSASV; listed as Homo sapiens) [compound 377] | ″++″ (≥20% = ++) |
| 378 (ALGYFVPYV; listed as Homo sapiens) [compound 378] | ″+++″ (≥50% = +++) |
| 379 (IMEGTLTRV; listed as Homo sapiens) [compound 379] | ″++″ (≥20% = ++) |
| 380 (TLIEDEIATI; listed as Homo sapiens) [compound 380] | ″++″ (≥20% = ++) |
| 381 (FIDEAYVEV; listed as Homo sapiens) [compound 381] | ″++″ (≥20% = ++) |
| 382 (ALQNYIKEA; listed as Homo sapiens) [compound 382] | ″++″ (≥20% = ++) |
| 383 (ALLELENSVTL; listed as Homo sapiens) [compound 383] | ″+++″ (≥50% = +++) |
| 385 (SLLEQGLVEA; listed as Homo sapiens) [compound 385] | ″++″ (≥20% = ++) |
| 386 (ILFRYPLTI; listed as Homo sapiens) [compound 386] | ″+++″ (≥50% = +++) |
| 387 (ALFQATAEV; listed as Homo sapiens) [compound 387] | ″++++″ (≥75% = ++++) |
| 388 (SLTIDGIRYV; listed as Homo sapiens) [compound 388] | ″+++″ (≥50% = +++) |
| 389 (LLADVTHLL; listed as Homo sapiens) [compound 389] | ″++″ (≥20% = ++) |
| 390 (ALFMKQIYL; listed as Homo sapiens) [compound 390] | ″+++″ (≥50% = +++) |
| 391 (YVYPQRLNFV; listed as Homo sapiens) [compound 391] | ″+++″ (≥50% = +++) |
| 392 (ALLHPQGFEV; listed as Homo sapiens) [compound 392] | ″++″ (≥20% = ++) |
| 393 (GLLDTQTSQVLTA; listed as Homo sapiens) [compound 393] | ″++″ (≥20% = ++) |
| 394 (LLAVIGGLVYL; listed as Homo sapiens) [compound 394] | ″+++″ (≥50% = +++) |
| 395 (ALALGGIAVV; listed as Homo sapiens) [compound 395] | ″++++″ (≥75% = ++++) |
| 396 (ALLPDLPAL; listed as Homo sapiens) [compound 396] | ″+++″ (≥50% = +++) |
| 397 (YLFGERLLEC; listed as Homo sapiens) [compound 397] | ″+++″ (≥50% = +++) |
| 398 (KLLEEDGTIITL; listed as Homo sapiens) [compound 398] | ″++″ (≥20% = ++) |

| Substance | Peptide exchange |
| --- | --- |
| 399 (YLFEPLYHV; listed as Homo sapiens) [compound 399] | ″+++″ (≥50% = +++) |
| 400 (SLLTEQDLWTV; listed as Homo sapiens) [compound 400] | ″++″ (≥20% = ++) |
| 401 (ILLDDTGLAYI; listed as Homo sapiens) [compound 401] | ″+++″ (≥50% = +++) |
| 402 (VLFSGALLGL; listed as Homo sapiens) [compound 402] | ″++″ (≥20% = ++) |
| 403 (KLYDRILRV; listed as Homo sapiens) [compound 403] | ″++″ (≥20% = ++) |
| 405 (ALYDVFLEV; listed as Homo sapiens) [compound 405] | ″++″ (≥20% = ++) |
| 407 (YLMDLINFL; listed as Homo sapiens) [compound 407] | ″+++″ (≥50% = +++) |
| 408 (VLDDSIYLV; listed as Homo sapiens) [compound 408] | ″++″ (≥20% = ++) |
| 409 (LLDAMNYHL; listed as Homo sapiens) [compound 409] | ″++″ (≥20% = ++) |
| 412 (YLDDLNEGVYI; listed as Homo sapiens) [compound 412] | ″++″ (≥20% = ++) |
| 426 (RLADKSVLV; listed as Homo sapiens) [compound 426] | ″+++″ (≥50% = +++) |
| 427 (ALLPLSPYL; listed as Homo sapiens) [compound 427] | ″+++″ (≥50% = +++) |
| 428 (KLGHTDILVGV; listed as Homo sapiens) [compound 428] | ″++″ (≥20% = ++) |
| 429 (GLVNDLARV; listed as Homo sapiens) [compound 429] | ″++″ (≥20% = ++) |
| 430 (HLYSSIEHLTT; listed as Homo sapiens) [compound 430] | ″+++″ (≥50% = +++) |
| 431 (SLVNVVPKL; listed as Homo sapiens) [compound 431] | ″++″ (≥20% = ++) |
| 432 (TLIEESAKV; listed as Homo sapiens) [compound 432] | ″++″ (≥20% = ++) |
| 433 (AMLNEPWAV; listed as Homo sapiens) [compound 433] | ″+++″ (≥50% = +++) |
| 434 (KVSNSGITRV; listed as Homo sapiens) [compound 434] | ″++″ (≥20% = ++) |
| 436 (HLAEVSAEV; listed as Homo sapiens) [compound 436] | ″+++″ (≥50% = +++) |
| 437 (SMAPGLVIQAV; listed as Homo sapiens) [compound 437] | ″+++″ (≥50% = +++) |
| 438 (KLLPLAGLYL; listed as Homo sapiens) [compound 438] | ″++++″ (≥75% = ++++) |
| 439 (YLLQEIYGI; listed as Homo sapiens) [compound 439] | ″+++″ (≥50% = +++) |
| 440 (ALADGVTMQV; listed as Homo sapiens) [compound 440] | ″++″ (≥20% = ++) |
| 441 (ALLENPKMEL; listed as Homo sapiens) [compound 441] | ″+++″ (≥50% = +++) |
